Measured values reported in patent publication US11357847B2, “Modified HSV gD protein and vaccine containing same” (KM Biologics Co., Ltd., priority 2017, dated 2022).
Residue numbers refer to the chain shown, from its start.

T1: HVEM (Homo sapiens, UniProt Q92956)
T1 sequence (Q92956 39-202): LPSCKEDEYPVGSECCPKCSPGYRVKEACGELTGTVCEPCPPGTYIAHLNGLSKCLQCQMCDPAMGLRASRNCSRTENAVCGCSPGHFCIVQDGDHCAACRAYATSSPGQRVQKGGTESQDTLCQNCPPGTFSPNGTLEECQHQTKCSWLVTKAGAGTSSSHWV

B1: gD1-275v3-55: gD1-275 with glycochain at SC-F, linked to T cell epitope peptide DP5 (protein)
chain: KYALADPSLKMADPNRFRGKNLPVLDQLTDPPGVKRVYHIQPSLEDPFQNASIPITVYYAVLERACRSVLLHAPSEAPQIVRGASDEARKHTYNLTIAWYRMGDNCAIPITVMEYTECPYNKSLGVCPIRTQPRWSYYDSFSAVSEDNLGFLMHAPAFETAGTYLRLVKINDWTEITQFILEHRARASCKYALPLRIPPAACLTSKAYQQGVTVDSIGMLPRFIPENQRTVALYSLKIAGWHGPKPPYTSTLLPPELSDTTNATQPELVPEDPEDGPGPGIAFWVRRRAQMAPKPLRIAFWVRRRAQMAPKPLRHHHHHH
modifications: left off: small tags and cut ends
B2: gD1-275v5-55: gD1-275 with glycochains at SC-A, SC-F, linked to T cell epitope peptide DP5 (protein)
chain: B1 chain with R186N
modifications: left off: small tags and cut ends
B3: gD1-315v5: gD1-315 with glycochains at R186 (SC-A) and P50 (SC-F) (protein)
chain: KYALADPSLKMADPNRFRGKNLPVLDQLTDPPGVKRVYHIQPSLEDPFQNASIPITVYYAVLERACRSVLLHAPSEAPQIVRGASDEARKHTYNLTIAWYRMGDNCAIPITVMEYTECPYNKSLGVCPIRTQPRWSYYDSFSAVSEDNLGFLMHAPAFETAGTYLRLVKINDWTEITQFILEHRANASCKYALPLRIPPAACLTSKAYQQGVTVDSIGMLPRFIPENQRTVALYSLKIAGWHGPKPPYTSTLLPPELSDTTNATQPELVPEDPEDSALLEDPAGTVSSQIPPNWHIPSIQDVAPHHAPAAPSNPGHHHHHH

What was measured:
[1] = test system: various anti-gD2 antibodies; assay: Reactivity of gD variants with anti-gD2 antibodies (competitive ELISA); format: binding, human; settings: for Reactivity with anti-gD2 antibody 1 / Reactivity with anti-gD2 antibody 5 / Reactivity with anti-gD2 antibody 13 / Reactivity with anti-gD2 antibody 72 / Reactivity with anti-gD2 antibody 75 / Reactivity with anti-gD2 antibody 78 / Reactivity with anti-gD2 antibody 82: immobilized gD variant
Source text: Each anti-gD2 monoclonal antibody and each gD variant were expressed using an Expi293 expression system.

HVEM = molecular target: T1, HVEM; assay: Reactivity of HVEM with gD variants (competitive ELISA); format: binding; settings: compared to the original gD1-315; FIG. 14
Description: From the above discussion, it can be strongly inferred that each variant takes the structure in which FR1 is bound to the receptor binding region. The reactivity of HVEM with each variant was then measured by competitive ELISA.
HVEM can bind gD for the first time when FR1 binds to the receptor binding region and takes a characteristic hairpin structure. […] FR3-deficient gD1-275v5-55 promoted FR1 binding and further HVEM binding over other gD1-315-based variants in which FR3 was present.

HSV-2 MS strain = assay: Mouse infection-prevention test of modified gD (genital herpes infection model); format: in vivo, BALB/c mice; set-up: key to Determination (vs gD1-315) / Determination# (vs gD1-315): ++: minimum effective dose based on the Significant difference test in three-fold common ratio relative to gD1-315(WT) of two or more doses stronger; +: those of one dose stronger; ±: those of an equivalent value; settings: for Determination# (vs gD1-315) / Determination (vs gD1-315): minimum effective dose relative to gD1-315(WT)
Description: Immunogenicity test of the modified gD antigen was performed using the wild-type gD antigen gD1-315 (WT) as a positive control and saline as a negative control. A predetermined amount of antigen was dissolved in saline for injection (saline) with MPLA (10 μg/mouse) and CpG (1 μg/mouse) and immunized to mice at a volume of 200 μL/mouse. BALB/c mice (5 weeks old, female) were used for the study and immunized subcutaneously in back at 2-week intervals for a total of 3 times (N=4 cases per group). Two weeks after the final immunization (third dose), blood was collected and serum was prepared for each individual. The prepared serum was serially diluted and assessed for neutralizing antibody-inducing activity against HSV-2 (50% plaque number-reducing activity).
An infection-prevention test in the preventive administration of modified gD antigen was performed using a mouse genital herpes infection model. Similar to the mouse immunogenicity test described above, mice were immunized with the number of N=10 cases per group. Depo-Provera was inoculated subcutaneously at 2 mg/mouse 6 days prior to viral inoculation to improve the multiplicity of infection upon viral inoculation 2 weeks after final immunization (third dose). 5×10^5 PFU/20 μL HSV-2 MS strain was inoculated transvaginally under anesthesia and observed for 21 days. Infection prevention ability was evaluated using survival time (survival rate) as index.
The infection model of the mouse genital herpes infection model was used to evaluate infection prevention ability of various modified gD in preventive administration. The number of animal cases in each group was set to n=10, and wild-type gD (gD1-315) was used as a positive control and saline was used as a negative control. The experiments were performed a total of four times (experiments 1-4) and four doses of 0.1 μg/mouse/time, 0.03 μg/mouse/time, 0.01 μg/mouse/time and 0.003 μg/mouse/time were set for all of the positive control, negative control, and subject modified gD antigen. Depo-Provera was inoculated subcutaneously at 2 mg/mouse 6 days prior to viral inoculation to improve the multiplicity of infection upon viral inoculation 2 weeks after final immunization (third dose). 5×10^5 PFU/20 HSV-2 MS strain was inoculated transvaginally under anesthesia and observed for 21 days. Infection prevention ability was evaluated using survival time (survival rate) as index. Mean values of those were plotted in the graph. A Significant difference test for the negative control group was performed by the Kaplan-Meier method, and those with a minimum effective dose based on the Significant difference test in three-fold common ratio relative to wild type gD of two or more doses stronger were determined to be “++”, those of one dose stronger were determined to be “+”, and those of an equivalent value were determined to be “±”.

[2] = Properties of produced gD variants (aggregates); format: physicochemical; settings: expressed and purified variant
Source text: Four gD1-275-based variants were produced. Since these were FR3-deficient variants, V231W mutations affecting FR3 were not investigated. […] Meanwhile, eight gD1-315-based variants were produced, and none of the variants were less than the original gD1-315 in both properties and expression level.

[3] = Experiment 1, 0.003 μg/head/time
[4] = Experiment 1, 0.01 μg/head/time
[5] = Experiment 1, 0.03 μg/head/time
[6] = Experiment 2, 0.003 μg/head/time
[7] = Experiment 2, 0.01 μg/head/time
[8] = Experiment 2, 0.03 μg/head/time
[9] = Experiment 3, 0.003 μg/head/time
[10] = Experiment 3, 0.01 μg/head/time
[11] = Experiment 3, 0.03 μg/head/time
[12] = Experiment 4, 0.003 μg/head/time
[13] = Experiment 4, 0.01 μg/head/time
[14] = Experiment 4, 0.03 μg/head/time

Molecule	Reactivity with anti-gD2 antibody 1 [1]	Reactivity with anti-gD2 antibody 5 [1]	Reactivity with anti-gD2 antibody 13 [1]	Reactivity with anti-gD2 antibody 72 [1]	Reactivity with anti-gD2 antibody 75 [1]	Reactivity with anti-gD2 antibody 78 [1]	Reactivity with anti-gD2 antibody 82 [1]	Mean survival time (HSV-2 MS strain; [3]) [days]	Significant difference test (vs saline) (HSV-2 MS strain; [3])	Mean survival time (HSV-2 MS strain; [4]) [days]	Significant difference test (vs saline) (HSV-2 MS strain; [4])	Mean survival time (HSV-2 MS strain; [5]) [days]	Significant difference test (vs saline) (HSV-2 MS strain; [5])	Mean survival time (HSV-2 MS strain; Experiment 1, 0.1 μg/head/time) [days]	Significant difference test (vs saline) (HSV-2 MS strain; Experiment 1, 0.1 μg/head/time)	Mean survival time (HSV-2 MS strain; [12]) [days]	Significant difference test (vs saline) (HSV-2 MS strain; [12])	Mean survival time (HSV-2 MS strain; [13]) [days]	Significant difference test (vs saline) (HSV-2 MS strain; [13])	Mean survival time (HSV-2 MS strain; [14]) [days]	also measured
gD1-315: wild-type soluble gD ectodomain 1-315 of HSV-2 333 strain, SEQ ID NO: 1; positive control [reference compound]	+ ((+): 70% or more)	+ ((+): 70% or more)	+ ((+): 70% or more)	+ ((+): 70% or more)	+ ((+): 70% or more)	+ ((+): 70% or more)	+ ((+): 70% or more)	6.5	N.S.	7	N.S.	>21	*** (*** p < 0.001)	>21	*** (*** p < 0.001)	8	N.S.	7.5	N.S.	>16.5	Reactivity with HVEM (HVEM): little reaction; Mean survival time (HSV-2 MS strain; [6]): 7.5 days; Significant difference test (vs saline) (HSV-2 MS strain; [6]): N.S.; Mean survival time (HSV-2 MS strain; [7]): 7.5 days; Significant difference test (vs saline) (HSV-2 MS strain; [7]): N.S.; Mean survival time (HSV-2 MS strain; [8]): >14.5 days; Significant difference test (vs saline) (HSV-2 MS strain; [8]): N.S.; Mean survival time (HSV-2 MS strain; Experiment 2, 0.1 μg/head/time): >22 days; Significant difference test (vs saline) (HSV-2 MS strain; Experiment 2, 0.1 μg/head/time): *** (*** p < 0.001); Mean survival time (HSV-2 MS strain; [9]): 6 days; Significant difference test (vs saline) (HSV-2 MS strain; [9]): N.S.; Mean survival time (HSV-2 MS strain; [10]): 8 days; Significant difference test (vs saline) (HSV-2 MS strain; [10]): * (* 0.01 = < p < 0.05); Mean survival time (HSV-2 MS strain; [11]): >21 days; Significant difference test (vs saline) (HSV-2 MS strain; [11]): *** (*** p < 0.001); Mean survival time (HSV-2 MS strain; Experiment 3, 0.1 μg/head/time): >21 days; Significant difference test (vs saline) (HSV-2 MS strain; Experiment 3, 0.1 μg/head/time): *** (*** p < 0.001); Significant difference test (vs saline) (HSV-2 MS strain; [14]): N.S.; Mean survival time (HSV-2 MS strain; Experiment 4, 0.1 μg/head/time): >21 days; Significant difference test (vs saline) (HSV-2 MS strain; Experiment 4, 0.1 μg/head/time): *** (*** p < 0.001)
B1	− ((−): less than 30%)	− ((−): less than 30%)	− ((−): less than 30%)	− ((−): less than 30%)	− ((−): less than 30%)	− ((−): less than 30%)	+ ((+): 70% or more)									7	N.S.	7.5	N.S.	>21	Significant difference test (vs saline) (HSV-2 MS strain; [14]): ** (** 0.001 = < p < 0.01); Mean survival time (HSV-2 MS strain; Experiment 4, 0.1 μg/head/time): >21 days; Significant difference test (vs saline) (HSV-2 MS strain; Experiment 4, 0.1 μg/head/time): ** (** 0.001 = < p < 0.01); Determination# (vs gD1-315) (HSV-2 MS strain; Experiment 4): +; Properties of the variant (aggregates) [2]: presence of aggregates was confirmed
B2	− ((−): less than 30%)	− ((−): less than 30%)	− ((−): less than 30%)	− ((−): less than 30%)	− ((−): less than 30%)	− ((−): less than 30%)	+ ((+): 70% or more)	13	*** (*** p < 0.001)	11	*** (*** p < 0.001)	>21	*** (*** p < 0.001)	>21	*** (*** p < 0.001)	8	N.S.	15.5	N.S.	>21	Determination (vs gD1-315) (HSV-2 MS strain; Experiment 1): ++; Significant difference test (vs saline) (HSV-2 MS strain; [14]): ** (** 0.001 = < p < 0.01); Mean survival time (HSV-2 MS strain; Experiment 4, 0.1 μg/head/time): >21 days; Significant difference test (vs saline) (HSV-2 MS strain; Experiment 4, 0.1 μg/head/time): *** (*** p < 0.001); Determination# (vs gD1-315) (HSV-2 MS strain; Experiment 4): +; Properties of the variant (aggregates) [2]: well properties
B3	+ ((+): 70% or more)	− ((−): less than 30%)	+ ((+): 70% or more)	± ((±): 30% or more and less than 70%)	− ((−): less than 30%)	− ((−): less than 30%)	+ ((+): 70% or more)	6.5	N.S.	>21	*** (*** p < 0.001)	>21	*** (*** p < 0.001)	>21	*** (*** p < 0.001)						Relative reactivity with antibody No. 82 (gD1-315 wild-type set to 1) ([1]; FIG. 13): substantially similar reactivity; Reactivity with HVEM (HVEM): little reaction; Determination (vs gD1-315) (HSV-2 MS strain; Experiment 1): +
